How the values were obtained:
Assay in all cases: pull-down
His-G5(1–739) Y474A = His-G5(1–739) Y474A (UniProt Q8TEQ6)
His-G5(1–739) Y15A = His-G5(1–739) Y15A (UniProt Q8TEQ6)
His-G5(1–739) wild type = His-G5(1–739) wild type (UniProt Q8TEQ6)
His-G5(1–739) W14A = His-G5(1–739) W14A (UniProt Q8TEQ6)
Chain of His-G5(1–739) W14A (Q8TEQ6 1-739 W14A): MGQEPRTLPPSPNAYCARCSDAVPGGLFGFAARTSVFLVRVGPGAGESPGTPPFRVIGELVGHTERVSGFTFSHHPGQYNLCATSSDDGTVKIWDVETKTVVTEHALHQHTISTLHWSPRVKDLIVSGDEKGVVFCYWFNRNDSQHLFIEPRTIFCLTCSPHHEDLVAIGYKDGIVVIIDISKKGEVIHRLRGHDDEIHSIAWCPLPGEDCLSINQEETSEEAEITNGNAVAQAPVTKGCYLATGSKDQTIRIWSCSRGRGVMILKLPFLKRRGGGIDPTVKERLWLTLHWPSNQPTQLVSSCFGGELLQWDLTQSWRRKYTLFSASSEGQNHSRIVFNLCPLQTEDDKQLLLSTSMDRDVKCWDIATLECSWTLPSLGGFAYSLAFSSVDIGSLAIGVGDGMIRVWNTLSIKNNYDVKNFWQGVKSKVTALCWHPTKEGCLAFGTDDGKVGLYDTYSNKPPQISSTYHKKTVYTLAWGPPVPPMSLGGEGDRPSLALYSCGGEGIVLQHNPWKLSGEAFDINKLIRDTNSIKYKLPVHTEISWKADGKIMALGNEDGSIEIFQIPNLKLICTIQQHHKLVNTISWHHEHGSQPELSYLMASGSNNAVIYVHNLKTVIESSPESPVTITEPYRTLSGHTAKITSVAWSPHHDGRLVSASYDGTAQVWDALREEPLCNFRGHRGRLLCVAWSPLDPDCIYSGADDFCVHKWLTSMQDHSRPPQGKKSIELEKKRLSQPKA

Chain of His-G5(1–739) Y474A (Q8TEQ6 1-739 Y474A): as the sequence (Q8TEQ6 1-739 W14A) above, with A14W, Y474A counted along it
Chain of His-G5(1–739) wild type (Q8TEQ6 1-739): as the sequence (Q8TEQ6 1-739 W14A) above, with A14W counted along it
Chain of His-G5(1–739) Y15A (Q8TEQ6 1-739 Y15A): as the sequence (Q8TEQ6 1-739 W14A) above, with A14W, Y15A counted along it

fold P0 signal over the beads-ribosome background (His-G5(1–739) Y474A): 3 fold
fold P0 signal over the beads-ribosome background (His-G5(1–739) Y15A): 14.4 fold
fold P0 signal over the control (beads with 80S, no His protein) (His-G5(1–739) wild type): 38.8 fold
fold P0 signal over the beads-ribosome background (His-G5(1–739) W14A): 13.8 fold
Substance: 80S ribosomes (from UniProt P05388 1-317) (complex)

Reference: PMC5041490
